In patent publication US10626154B2, “Binding domains directed against GPCR:G protein complexes and uses derived thereof” (VIB VZW, priority 2011, dated 2020):
“Also recorded” adds a separate entry of the source. Read-outs that look alike come from different tables or passages of the source. Blank lines part the entries; values can stand above or below the molecule they belong to.

How the values were obtained:
[1] = molecular target: T1, β2AR-365:Gs complex (UniProt P04896+P07550, E27Q/G16R/N187E); assay: analytical gel filtration: stability of the R:G complex in detergents; conditions: for stability of the R:G complex in detergent: 48 hrs at 4° C.
T1 construct: A β2AR construct truncated after residue 365; Flag (M1); made in house; host or cells: High 5 insect cells (Gs subunits)
Description: (§1) FIG. 4: Stabilizing effect of MNG-3 on the R:G complex. Panel a) Analytical gel filtration of β2AR-365:Gs complexes purified in DDM (in black), MNG-3 (in blue), or two MNG-3 analogs (in red and green) following incubation for 48 hrs at 4° C. In contrast to DDM the R:G complexes are stable in the MNG detergents. Panel b) Effect of diluting unliganded purified β2AR in DDM or MNG-3 below the critical micelle concentration (CMC) of the detergent as assayed by 3H-dihydro alprenolol (3H-DHA) saturation binding.
One challenge for crystallogenesis was to prepare a stable β2AR:Gs complex in detergent solution. The β2AR and Gs couple efficiently in lipid bilayers, but not in detergents used to solubilize and purify these proteins (Example 1). […] Apyrase, a non-selective purine pyrophosphatase, was added to hydrolyze GDP released from Gs on forming a complex with the β2AR. The complex was subsequently purified by sequential antibody affinity chromatography and size exclusion chromatography. The stability of the complex was enhanced by exchanging it into a recently developed maltose neopentyl glycol detergent (NG-310, Anatrace) (Chae et al., 2010).

[2] = molecular target: T2, unliganded purified β2AR (Homo sapiens, UniProt P07550); assay: 3H-DHA saturation binding after dilution of detergent below the CMC; conditions: diluted 1000-fold below the CMC; DDM after 20 sec, MNG-3 after 24 hrs
T2 construct: made in house
Description: as §1

[3] = molecular target: T1, β2AR-365:Gs complex; assay: analytical gel filtration: effect of nucleotide analogs on the R:G complex; format: biochemical; conditions: for effect of nucleotides on the β2AR:Gs complex: 0.1 mM (FIG. 3A); for effect of phosphates resembling nucleotide phosphate groups on the complex: 5 mM
Description: FIGS. 3A-3G: Effect of nucleotide analogs, pH, and nanobodies on the stability of the β2AR:Gs complex. […] FIG. 3C, The pH limit was determined to guide the preparation of crystallization screens. For the same purpose the effect of ionic strength (data not shown) was determined using NaCl at various concentrations.
To maintain the high-affinity nucleotide-free state of the complex, apyrase (25 mU/ml, NEB) was added after 90 min to hydrolyze residual GDP released from Gαs upon binding to the receptor.

[4] = molecular target: T3, AVP:NT4LV2R:Gs complex (Arginine vasopressin receptor 2) (Homo sapiens, UniProt P30518); assay: SEC stability of the AVP:NT4LV2R:Gs complex; format: biochemical
T3 construct: The N-terminally fused T4L V2R construct (NT4L-V2R); His tag (only implied by nickel-NTA purification of the receptor); made in house; host or cells: Sf9 (NT4L-V2R); High 5 (Gs); E. coli WK6 (Nb35)
Description: Arginine vasopressin (AVP), also known as vasopressin, argipressin or antidiuretic hormone, is a natural ligand that activates Arginine vasopressin receptor 2.
Formation of a stable complex (FIG. 19, Panel a) was accomplished by mixing His tagged Gs heterotrimer at approximately 90 μM concentration with AVP bound NT4LV2R (90 μM) and NB35 (100 μM) in 0.1 ml buffer (10 mM HEPES, pH 7.5, 100 mM NaCl, 0.1% DDM, 1 mM EDTA, 3 mM MgCl2, 10 μM AVP) and incubated for 2 hours at room temperature. Next, the AVP:NT4LV2R:Gs complex was purified in two successive affinity purification steps. The purification was monitored by SDS-PAGE (FIG. 19). First, the complex was applied on a Ni-NTA column after adding 300 μl of 1% MNG in 10 mM HEPES, pH 7.5, 100 mM NaCl buffer onto the reaction mix. Following extensive washing with buffer, the complex was eluted in 0.2% MNG, 10 mM HEPES, pH 7.5, 100 mM NaCl AVP 10 μM with 200 mM imidazole. Next the complex was applied on a FLAG-tag affinity column, washed extensively in the same buffer containing 0.01% MNG and eluted with the FLAG-peptide. […] This complex was further purified by SEC on a superdex200 column in 10 mM HEPES, pH 7.5, 100 mM NaCl, 0.01% MNG, 1 mM EDTA, 3 mM MgCl2, 1 μM AVP). […]

[5] = system: T4L-β2AR
[6] = system: β2AR:Gs:BI167107 ternary complex; assay: analytical gel filtration (size exclusion chromatography) of nanobody binding to the ternary complex; set-up: species or system human β2AR; bovine Gαs, rat Gβ1, rat Gγ2; conditions: for epitope on the Gs heterotrimer relative to Nb37 (size exclusion chromatography): forms R:G:Nb:Nb37 complex
[7] = system: β2AR:Gs:BI167107 complex; assay: analytical size exclusion chromatography of the ternary complex in the presence and absence of GTPγS; format: biochemical, human β2AR; bovine Gαs, rat Gβ1, rat Gγ2
Description: The mutual effects of Nbs and the non-hydrolyzable GTP analog GTPγS on the integrity of the agonist:β2AR:Gs ternary complex was analyzed by analytical size exclusion chromatography in the presence and absence of GTPγS.

[8] = molecular target: T4, purified Gαs (Bos taurus, UniProt P04896); assay: Bodipy-GTPγS-FL fluorescence nucleotide binding assay on Gαs; format: biochemical, Bovine; conditions: 100 nM Bodipy-GTPγS-FL, 1 μM purified Gαs, increasing concentrations of nanobody, 300 seconds
T4 construct: made in house
Description: (§2) To investigate the effect of nanobodies (Nb35 and Nb37) on Gs alone, nanobodies were added together with bodipy-GTPγS-FL and various Gs protein preparations in 20 mM Tris-HCl, Ph 8.0, 3 mM MgCl2, 1 mM DTT in a final volume of 200 μL. Samples containing a heterotrimeric Gs protein also included 0.1% DDM. Bodipy-GTPγS-FL is a stable fluorescent GTP analog (λex≈470 nm, λem≈515 nm). Its fluorescence intensity increases upon G protein binding and Bodipy-GTPγS-FL can therefore be used for real-time measurements of nucleotide binding to G proteins (McEwen et al., 2001). Fluorescence was measured in a 96-well microtiter plate format on a M5 fluorescence plate reader (Molecular […]).
In a first experiment (FIG. 16), increasing amounts of Nb37 were incubated with 1 μM purified GαS and 100 nM Bodipy-GTPγS-FL and the fluorescence increase was measured on a short time scale (300 seconds) to minimize the accumulation of the hydrolysis product bodipy-phosphate (Jameson et al., 2005). The Gαs subunit of the heterotrimeric Gs protein was purified as described previously (Sunahara et al., 1997). […] In a similar experiment (FIG. 17), increasing amounts of Nb35 were incubated with 1 μM purified GαS and 100 nM Bodipy-GTPγS-FL.

[9] = molecular target: T5, purified Gsαβγ heterotrimer (UniProt P04896+P54311); assay: Bodipy-GTPγS-FL fluorescence nucleotide binding assay on Gs heterotrimer; format: biochemical, bovine Gαs, rat Gβ1, rat Gγ2; conditions: 100 nM Bodipy-GTPγS-FL, 1 μM purified Gsαβγ heterotrimer, increasing concentrations of nanobody
T5 construct: made in house; host or cells: High 5 insect cells
Description: as §2
In another experiment (FIG. 18), increasing amounts of Nb35 were incubated with 1 μM of the purified Gs αβγ heterotrimer and 100 nM Bodipy-GTPγS-FL.

stability of the R:G complex in detergent [1]: significant dissociation | 3H-DHA binding of β2AR after dilution of detergent [2]: loss in 3H-DHA binding
Molecule: CCCCCCCCCCCCO[C@@H]1O[C@H](CO)[C@@H](O[C@H]2O[C@H](CO)[C@@H](O)[C@H](O)[C@H]2O)[C@H](O)[C@H]1O [DDM, n-Dodecyl-β-D-maltoside]

Molecule: Nc1nc2c(ncn2[C@@H]2O[C@H](COP(=O)(O)OP(=O)(O)O)[C@@H](O)[C@H]2O)c(=O)[nH]1 [GDP, guanosine diphosphate]
effect of nucleotides on the β2AR:Gs complex [3]: disrupt the β2AR:Gs complex; also recorded: causes dissociation of the β2AR-365:Gs complex

effect of nucleotides on the β2AR:Gs complex [3]: disrupt the β2AR:Gs complex
Molecule: Nc1nc2c(ncn2[C@@H]2O[C@H](COP(=O)(O)OP(=O)(O)OP(=O)(O)O)[C@@H](O)[C@H]2O)c(=O)[nH]1 [GTP, guanosine triphosphate]

Molecule: Nc1nc2c(ncn2[C@@H]2O[C@H](COP(=O)(O)OP(=O)(O)OP(O)(O)=S)[C@@H](O)[C@H]2O)c(=O)[nH]1 [GTPγS]
effect of nucleotides on the β2AR:Gs complex [3]: causes dissociation of the β2AR-365:Gs complex

stability of the β2AR:Gs complex in detergent at room temperature ([1]; room temperature for 24 hours): without any noticeable degradation
Molecule: CCCCCCCCCCC(CCCCCCCCCC)(CO[C@@H]1O[C@H](CO)[C@@H](O[C@H]2O[C@H](CO)[C@@H](O)[C@H](O)[C@H]2O)[C@H](O)[C@H]1O)CO[C@@H]1O[C@H](CO)[C@@H](O[C@H]2O[C@H](CO)[C@@H](O)[C@H](O)[C@H]2O)[C@H](O)[C@H]1O [MNG-3]
stability of the R:G complex in detergent [1]: substantially stabilize the complex; also recorded: stable | 3H-DHA binding of β2AR after dilution of detergent [2]: maintained full ability to bind the radioligand

effect of antagonist on the AVP:NT4LV2R:Gs complex ([4]; 10 μM): disrupts the AVP:NT4LV2R:Gs complex
Molecule: CCOc1ccc2c(c1)C1(CCC(OCCN3CCOCC3)CC1)C(=O)N2S(=O)(=O)c1ccc(C(=O)NC(C)(C)C)cc1OC (stereo not shown) [SR121463, reference compound]

Molecule: CCCc1ccccc1OCC(O)CNC(C)C (stereo not shown) [^3H-dihydro-alprenolol]
effect of M96T and M98T receptor mutations on ligand affinity ([5]; data not shown): did not affect ligand binding affinity

effect of phosphates resembling nucleotide phosphate groups on the complex [3]: did not cause disruption of the complex
Molecule: O=C(O)P(=O)(O)O [forcarnet]

effect of M96T and M98T receptor mutations on ligand affinity [5]: two-fold decrease in affinity
Molecule: CC(C)NCC(O)c1ccc(O)c(O)c1 (stereo not shown) [isoproterenol]

Molecule: O=P(O)(O)OP(=O)(O)O [pyrophosphate]
effect of phosphates resembling nucleotide phosphate groups on the complex [3]: did not cause disruption of the complex

binding to the β2AR:Gs:BI167107 ternary complex by analytical gel filtration [6]: further confirmed
B1: Nb37: nanobody, SEQ ID NO: 4, binds the Gsα subunit (protein, listed as Lama glama)
VHH: QVQLQESGGGFVQAGGSLRLSCAASGSIFSKNTMAWFRQAPGKERELVAASPTGGSTAYKDSVKGRFTISRDSAKNTVLLQMNVLKPEDTAVYYCHLRQNNRGSWFHYWGQGTQVTVSSHHHHHHEPEA
protection of the ternary complex from dissociation by GTPγS [7]: insensitive to GTPγS treatment | protection of the ternary complex from dissociation by GTPγS ([7]; listed as 37): protect the β2AR:Gs:BI167107 complex from dissociation | effect on GTPγS binding to Gαs alone [8]: blocks GTPγS binding to Gsα alone in a dose dependent manner; also recorded: inhibits GTPγS binding to Gαs

binding to the β2AR:Gs:BI167107 ternary complex by analytical gel filtration [6]: further confirmed | epitope on the Gs heterotrimer relative to Nb37 (size exclusion chromatography) [6]: bind separate epitopes
B2: Nb36: nanobody, SEQ ID NO: 3, binds Gs (protein, listed as Lama glama)
VHH: QVQLQESGGGSVQAGGSLRLSCTVSGTIFSVTVMGWYRQAPGKQRELVAGFTNTRNTNYVDSVKGRFTISKDSAKNTMYLQMNSLKPEDTAVYYCNVRRWGGTNWNDYWGQGTQVTVSSHHHHHHEPEA
protection of the ternary complex from dissociation by GTPγS [7]: less sensitive to GTPγS treatment | protection of the ternary complex from dissociation by GTPγS ([7]; listed as 36): protect the β2AR:Gs:BI167107 complex from dissociation

binding to the β2AR:Gs:BI167107 ternary complex by analytical gel filtration [6]: further confirmed | epitope on the Gs heterotrimer relative to Nb37 (size exclusion chromatography) [6]: bind separate epitopes
B3: Nb35: nanobody, SEQ ID NO: 1; binds Gs at the interface of Gα and Gβ subunits (protein, listed as Lama glama)
VHH: QVQLQESGGGLVQPGGSLRLSCAASGFTFSNYKMNWVRQAPGKGLEWVSDISQSGASISYTGSVKGRFTISRDNAKNTLYLQMNSLKPEDTAVYYCARCPAPFTRDCFDVTSTTYAYRGQGTQVTVSSHHHHHHEPEA
protection of the ternary complex from dissociation by GTPγS [7]: protects the complex from dissociation by GTPγS; also recorded: insensitive to GTPγS treatment | protection of the ternary complex from dissociation by GTPγS ([7]; listed as 35): protect the β2AR:Gs:BI167107 complex from dissociation | effect on GTPγS binding to Gαs alone [8]: has no effect on GTPγS binding; also recorded: does not affect GTPγS binding to Gαs | effect on GTPγS binding to the Gsαβγ heterotrimer [9]: blocks GTPγS binding to the free Gsαβγ heterotrimer in a dose dependent manner; also recorded: inhibits GTPγS binding to the Gsαβγ heterotrimer | stability of the V2R:Gs:AVP complex with nanobody in SEC ([4]; complex of V2R, Gs, Nb35 and AVP): demonstrated the stability of this complex in SEC
